Assay results as given in US20260001928A1 (CORTERIA PHARMACEUTICALS, priority 2022, published 2026).
*1 amine or outer side, *2 acyl side, *3 side chain or, on linkers, in order; H or OH if unused. Where no end group is shown, it is not given here. Side-chain parts run from the residue outwards. [ ]: non-standard residue; d: D form. The star is where a group is joined. C18 diacid = O=C(O)CCCCCCCCCCCCCCCCC(=O)*; γGlu = O=C(O)[C@H](CCC(=O)[*:2])N[*:1]; NMeI = CC[C@H](C)[C@H](NC)C(=O)O; Nva = CCC[C@H](N)C(=O)O; Abu = CC[C@H](N)C(=O)O; Pentanoyl = CCCCC(=O)*; AEEA = NCCOCCOCC(=O)O; Aib = CC(C)(N)C(=O)O

T1: CRF1R receptor (UniProt P34998 24-415, limits assumed)
T1 sequence (looked up): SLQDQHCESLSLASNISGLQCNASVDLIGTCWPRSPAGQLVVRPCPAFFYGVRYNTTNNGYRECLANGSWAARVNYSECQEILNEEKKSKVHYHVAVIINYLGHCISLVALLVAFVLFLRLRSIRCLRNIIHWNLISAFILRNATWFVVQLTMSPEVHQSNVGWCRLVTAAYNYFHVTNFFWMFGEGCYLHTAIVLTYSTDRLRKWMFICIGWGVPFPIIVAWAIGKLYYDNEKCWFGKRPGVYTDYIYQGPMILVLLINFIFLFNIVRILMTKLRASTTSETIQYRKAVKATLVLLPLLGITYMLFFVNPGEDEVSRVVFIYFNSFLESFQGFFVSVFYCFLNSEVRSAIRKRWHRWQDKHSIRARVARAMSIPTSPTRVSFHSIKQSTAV


What was measured:
[1] = biological target: human corticotropin-releasing factor 2a (CRF2a receptor) (human), Q13324; test: cell-based or functional assay
human corticotropin-releasing factor 2a (CRF2a receptor) (human), Q13324, sequence (Q13324 20-411): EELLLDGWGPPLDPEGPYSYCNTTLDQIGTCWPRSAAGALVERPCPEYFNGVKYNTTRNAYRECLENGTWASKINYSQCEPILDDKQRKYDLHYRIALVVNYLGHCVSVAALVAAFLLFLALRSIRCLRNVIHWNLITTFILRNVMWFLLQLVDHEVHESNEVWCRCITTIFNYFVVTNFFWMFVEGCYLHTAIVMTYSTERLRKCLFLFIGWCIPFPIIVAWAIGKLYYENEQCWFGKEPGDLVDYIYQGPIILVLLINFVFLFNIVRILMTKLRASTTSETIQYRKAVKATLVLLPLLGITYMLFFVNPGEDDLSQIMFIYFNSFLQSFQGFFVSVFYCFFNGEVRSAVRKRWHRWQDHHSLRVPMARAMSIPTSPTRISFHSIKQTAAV

CRF1R receptor = biological target: T1, CRF1R receptor; test: cell-based or functional assay

Binder | EC50 [nM] (cAMP) [1] | Emax (% I) (CRF1R receptor) | EC50 (CRF1R receptor)
Ac-IVLSLD[dV]PIKLK([AEEA-AEEA-γGlu-C18 diacid])KILLEQEKQKKQREQAETN[Nva]QILAQV-NH2 (SMILES CCC[C@H](NC(=O)[C@H](CC(N)=O)NC(=O)[C@@H](NC(=O)[C@H](CCC(=O)O)NC(=O)[C@H](C)NC(=O)[C@H](CCC(N)=O)NC(=O)[C@H](CCC(=O)O)NC(=O)[C@H](CCCNC(=N)N)NC(=O)[C@H](CCC(N)=O)NC(=O)[C@H](CCCCN)NC(=O)[C@H](CCCCN)NC(=O)[C@H](CCC(N)=O)NC(=O)[C@H](CCCCN)NC(=O)[C@H](CCC(=O)O)NC(=O)[C@H](CCC(N)=O)NC(=O)[C@H](CCC(=O)O)NC(=O)[C@H](CC(C)C)NC(=O)[C@H](CC(C)C)NC(=O)[C@@H](NC(=O)[C@H](CCCCN)NC(=O)[C@H](CCCCNC(=O)COCCOCCNC(=O)COCCOCCNC(=O)CC[C@H](NC(=O)CCCCCCCCCCCCCCCCC(=O)O)C(=O)O)NC(=O)[C@H](CC(C)C)NC(=O)[C@H](CCCCN)NC(=O)[C@@H](NC(=O)[C@@H]1CCCN1C(=O)[C@H](NC(=O)[C@H](CC(=O)O)NC(=O)[C@H](CC(C)C)NC(=O)[C@H](CO)NC(=O)[C@H](CC(C)C)NC(=O)[C@@H](NC(=O)[C@@H](NC(C)=O)[C@@H](C)CC)C(C)C)C(C)C)[C@@H](C)CC)[C@@H](C)CC)[C@@H](C)O)C(=O)N[C@@H](CCC(N)=O)C(=O)N[C@H](C(=O)N[C@@H](CC(C)C)C(=O)N[C@@H](C)C(=O)N[C@@H](CCC(N)=O)C(=O)N[C@H](C(N)=O)C(C)C)[C@@H](C)CC) [SEQ ID NO 105] | 0.87 nM | 10% | 
[NMeI]VLSLD[dV]PIKLK([AEEA-AEEA-γGlu-C18 diacid])KILLEQEKQKKQREQAETNAQILAQV-NH2 (N-terminus assumed; SMILES CC[C@H](C)[C@H](NC)C(=O)N[C@H](C(=O)N[C@@H](CC(C)C)C(=O)N[C@@H](CO)C(=O)N[C@@H](CC(C)C)C(=O)N[C@@H](CC(=O)O)C(=O)N[C@@H](C(=O)N1CCC[C@H]1C(=O)N[C@H](C(=O)N[C@@H](CCCCN)C(=O)N[C@@H](CC(C)C)C(=O)N[C@@H](CCCCNC(=O)COCCOCCNC(=O)COCCOCCNC(=O)CC[C@H](NC(=O)CCCCCCCCCCCCCCCCC(=O)O)C(=O)O)C(=O)N[C@@H](CCCCN)C(=O)N[C@H](C(=O)N[C@@H](CC(C)C)C(=O)N[C@@H](CC(C)C)C(=O)N[C@@H](CCC(=O)O)C(=O)N[C@@H](CCC(N)=O)C(=O)N[C@@H](CCC(=O)O)C(=O)N[C@@H](CCCCN)C(=O)N[C@@H](CCC(N)=O)C(=O)N[C@@H](CCCCN)C(=O)N[C@@H](CCCCN)C(=O)N[C@@H](CCC(N)=O)C(=O)N[C@@H](CCCNC(=N)N)C(=O)N[C@@H](CCC(=O)O)C(=O)N[C@@H](CCC(N)=O)C(=O)N[C@@H](C)C(=O)N[C@@H](CCC(=O)O)C(=O)N[C@H](C(=O)N[C@@H](CC(N)=O)C(=O)N[C@@H](C)C(=O)N[C@@H](CCC(N)=O)C(=O)N[C@H](C(=O)N[C@@H](CC(C)C)C(=O)N[C@@H](C)C(=O)N[C@@H](CCC(N)=O)C(=O)N[C@H](C(N)=O)C(C)C)[C@@H](C)CC)[C@@H](C)O)[C@@H](C)CC)[C@@H](C)CC)C(C)C)C(C)C) [SEQ ID NO 113] | 0.35 nM | 6% | 
Ac-IVLSLD[dV]PIKLK([AEEA-AEEA-γGlu-C18 diacid])KILLEQEKQKKQREQAETNAQILAQV-NH2 (SMILES CC[C@H](C)[C@H](NC(C)=O)C(=O)N[C@H](C(=O)N[C@@H](CC(C)C)C(=O)N[C@@H](CO)C(=O)N[C@@H](CC(C)C)C(=O)N[C@@H](CC(=O)O)C(=O)N[C@@H](C(=O)N1CCC[C@H]1C(=O)N[C@H](C(=O)N[C@@H](CCCCN)C(=O)N[C@@H](CC(C)C)C(=O)N[C@@H](CCCCNC(=O)COCCOCCNC(=O)COCCOCCNC(=O)CC[C@H](NC(=O)CCCCCCCCCCCCCCCCC(=O)O)C(=O)O)C(=O)N[C@@H](CCCCN)C(=O)N[C@H](C(=O)N[C@@H](CC(C)C)C(=O)N[C@@H](CC(C)C)C(=O)N[C@@H](CCC(=O)O)C(=O)N[C@@H](CCC(N)=O)C(=O)N[C@@H](CCC(=O)O)C(=O)N[C@@H](CCCCN)C(=O)N[C@@H](CCC(N)=O)C(=O)N[C@@H](CCCCN)C(=O)N[C@@H](CCCCN)C(=O)N[C@@H](CCC(N)=O)C(=O)N[C@@H](CCCNC(=N)N)C(=O)N[C@@H](CCC(=O)O)C(=O)N[C@@H](CCC(N)=O)C(=O)N[C@@H](C)C(=O)N[C@@H](CCC(=O)O)C(=O)N[C@H](C(=O)N[C@@H](CC(N)=O)C(=O)N[C@@H](C)C(=O)N[C@@H](CCC(N)=O)C(=O)N[C@H](C(=O)N[C@@H](CC(C)C)C(=O)N[C@@H](C)C(=O)N[C@@H](CCC(N)=O)C(=O)N[C@H](C(N)=O)C(C)C)[C@@H](C)CC)[C@@H](C)O)[C@@H](C)CC)[C@@H](C)CC)C(C)C)C(C)C) [SEQ ID NO 100] | 0.41 nM | 8% | 
Ac-IVLSLD[dV]PIKLK([AEEA-AEEA-γGlu-γGlu-C18 diacid])QILLKQERQKKQREQAEKN[Aib]QILEQV-NH2 (SMILES CC[C@H](C)[C@H](NC(C)=O)C(=O)N[C@H](C(=O)N[C@@H](CC(C)C)C(=O)N[C@@H](CO)C(=O)N[C@@H](CC(C)C)C(=O)N[C@@H](CC(=O)O)C(=O)N[C@@H](C(=O)N1CCC[C@H]1C(=O)N[C@H](C(=O)N[C@@H](CCCCN)C(=O)N[C@@H](CC(C)C)C(=O)N[C@@H](CCCCNC(=O)COCCOCCNC(=O)COCCOCCNC(=O)CC[C@H](NC(=O)CC[C@H](NC(=O)CCCCCCCCCCCCCCCCC(=O)O)C(=O)O)C(=O)O)C(=O)N[C@@H](CCC(N)=O)C(=O)N[C@H](C(=O)N[C@@H](CC(C)C)C(=O)N[C@@H](CC(C)C)C(=O)N[C@@H](CCCCN)C(=O)N[C@@H](CCC(N)=O)C(=O)N[C@@H](CCC(=O)O)C(=O)N[C@@H](CCCNC(=N)N)C(=O)N[C@@H](CCC(N)=O)C(=O)N[C@@H](CCCCN)C(=O)N[C@@H](CCCCN)C(=O)N[C@@H](CCC(N)=O)C(=O)N[C@@H](CCCNC(=N)N)C(=O)N[C@@H](CCC(=O)O)C(=O)N[C@@H](CCC(N)=O)C(=O)N[C@@H](C)C(=O)N[C@@H](CCC(=O)O)C(=O)N[C@@H](CCCCN)C(=O)N[C@@H](CC(N)=O)C(=O)NC(C)(C)C(=O)N[C@@H](CCC(N)=O)C(=O)N[C@H](C(=O)N[C@@H](CC(C)C)C(=O)N[C@@H](CCC(=O)O)C(=O)N[C@@H](CCC(N)=O)C(=O)N[C@H](C(N)=O)C(C)C)[C@@H](C)CC)[C@@H](C)CC)[C@@H](C)CC)C(C)C)C(C)C) [SEQ ID NO 30] | 0.29 nM | 15% | > 250 nM
Ac-IVLSLD[dV]PIKLK([AEEA-AEEA-γGlu-C18 diacid])KILLEQEKQKKQREQAETN[Abu]QILAQV-NH2 (SMILES CC[C@H](NC(=O)[C@H](CC(N)=O)NC(=O)[C@@H](NC(=O)[C@H](CCC(=O)O)NC(=O)[C@H](C)NC(=O)[C@H](CCC(N)=O)NC(=O)[C@H](CCC(=O)O)NC(=O)[C@H](CCCNC(=N)N)NC(=O)[C@H](CCC(N)=O)NC(=O)[C@H](CCCCN)NC(=O)[C@H](CCCCN)NC(=O)[C@H](CCC(N)=O)NC(=O)[C@H](CCCCN)NC(=O)[C@H](CCC(=O)O)NC(=O)[C@H](CCC(N)=O)NC(=O)[C@H](CCC(=O)O)NC(=O)[C@H](CC(C)C)NC(=O)[C@H](CC(C)C)NC(=O)[C@@H](NC(=O)[C@H](CCCCN)NC(=O)[C@H](CCCCNC(=O)COCCOCCNC(=O)COCCOCCNC(=O)CC[C@H](NC(=O)CCCCCCCCCCCCCCCCC(=O)O)C(=O)O)NC(=O)[C@H](CC(C)C)NC(=O)[C@H](CCCCN)NC(=O)[C@@H](NC(=O)[C@@H]1CCCN1C(=O)[C@H](NC(=O)[C@H](CC(=O)O)NC(=O)[C@H](CC(C)C)NC(=O)[C@H](CO)NC(=O)[C@H](CC(C)C)NC(=O)[C@@H](NC(=O)[C@@H](NC(C)=O)[C@@H](C)CC)C(C)C)C(C)C)[C@@H](C)CC)[C@@H](C)CC)[C@@H](C)O)C(=O)N[C@@H](CCC(N)=O)C(=O)N[C@H](C(=O)N[C@@H](CC(C)C)C(=O)N[C@@H](C)C(=O)N[C@@H](CCC(N)=O)C(=O)N[C@H](C(N)=O)C(C)C)[C@@H](C)CC) [SEQ ID NO 104] | 0.47 nM | 5% | 
Pentanoyl-VLSLD[dV]PIKLK([AEEA-AEEA-γGlu-C18 diacid])KILLEQEKQKKQREQAETNAQILAQV-NH2 (SMILES CCCCC(=O)N[C@H](C(=O)N[C@@H](CC(C)C)C(=O)N[C@@H](CO)C(=O)N[C@@H](CC(C)C)C(=O)N[C@@H](CC(=O)O)C(=O)N[C@@H](C(=O)N1CCC[C@H]1C(=O)N[C@H](C(=O)N[C@@H](CCCCN)C(=O)N[C@@H](CC(C)C)C(=O)N[C@@H](CCCCNC(=O)COCCOCCNC(=O)COCCOCCNC(=O)CC[C@H](NC(=O)CCCCCCCCCCCCCCCCC(=O)O)C(=O)O)C(=O)N[C@@H](CCCCN)C(=O)N[C@H](C(=O)N[C@@H](CC(C)C)C(=O)N[C@@H](CC(C)C)C(=O)N[C@@H](CCC(=O)O)C(=O)N[C@@H](CCC(N)=O)C(=O)N[C@@H](CCC(=O)O)C(=O)N[C@@H](CCCCN)C(=O)N[C@@H](CCC(N)=O)C(=O)N[C@@H](CCCCN)C(=O)N[C@@H](CCCCN)C(=O)N[C@@H](CCC(N)=O)C(=O)N[C@@H](CCCNC(=N)N)C(=O)N[C@@H](CCC(=O)O)C(=O)N[C@@H](CCC(N)=O)C(=O)N[C@@H](C)C(=O)N[C@@H](CCC(=O)O)C(=O)N[C@H](C(=O)N[C@@H](CC(N)=O)C(=O)N[C@@H](C)C(=O)N[C@@H](CCC(N)=O)C(=O)N[C@H](C(=O)N[C@@H](CC(C)C)C(=O)N[C@@H](C)C(=O)N[C@@H](CCC(N)=O)C(=O)N[C@H](C(N)=O)C(C)C)[C@@H](C)CC)[C@@H](C)O)[C@@H](C)CC)[C@@H](C)CC)C(C)C)C(C)C) [SEQ ID NO 122] | 0.67 nM | 5% | 
